Assay results taken from paper PMC13598120.

Target: BLM, endogenous, P54132
Experiment: PLA (α-Flag + α-BLM)
Details: chain shown with the change, U2OS cells, 2 h, read off a plot

B1: Flag-tagged GNL3 (Flag-GNL3), wild type, Q9BVP2 143VVLEVL149 to 143VAAEAL149 (SIMm) (protein)
chain: MKRPKLKKASKRMTCHKRYKIQKKVREHHRKLRKEAKKRGHKKPRKDPGVPNSAPFKEALLREAELRKQRLEELKQQQKLDRQKELEKKRKLETNPDIKPSNVEPMEKEFGLCKTENKAKSGKQNSKKLYCQELKKVIEASDVAAEALDARDPLGCRCPQVEEAIVQSGQKKLVLILNKSDLVPKENLESWLNYLKKELPTVVFRASTKPKDKGKITKRVKAKKNAAPFRSEVCFGKEGLWKLLGGFQETCSKAIRVGVIGFPNVGKSSIINSLKQEQMCNVGVSMGLTRSMQVVPLDKQITIIDSPSFIVSPLNSSSALALRSPASIEVVKPMEAASAILSQADARQVVLKYTVPGYRNSLEFFTVLAQRRGMHQKGGIPNVEGAAKLLWSEWTGASLAYYCHPPTSWTPPPYFNESIVVDMKSGFNLEELEKNNAQSIRAIKGPHLANSILFQSSGLTNGIIEEKDIHEELPKRKERKQEEREDDKDSDQETVDEEVDENSSGMFAAEETGEALSEETTAGEQSTRSFILDKIIEEDDAYDFSTDYV
response (PLA dots per cell) (20 μM ETO, parent: est. 100): 24
response (PLA dots per cell) (DMSO, parent: est. 13): 5
